Source: US20210130436A1 (published 2021)
Substitutions are numbered along the chain they refer to. Names may count otherwise.

B1: variant CD80 IgV-Fc Q27H/E35D/M47I (Fc fusion, not shown: a dimerising Fc or GST)
chain: VIHVTKEVKEVATLSCGHNVSVEELAHTRIYWQKDKKMVLTMMSGDINIWPEYKNRTIFDITNNLSIVILALRPSDEGTYECVVLKYEKDAFKREHLAEVTLSVKAD
B2: variant CD80 IgV-Fc Q27L/E35D/M47V/I61V/L85M (Fc fusion, not shown: a dimerising Fc or GST)
chain: B1 chain with H27L, I47V, I61V, L85M
B3: variant CD80 IgV-Fc V22A/E35D/M47L/A71G (Fc fusion, not shown: a dimerising Fc or GST)
chain: B1 chain with V22A, H27Q, I47L, A71G
B4: variant CD80 IgV-Fc (inert) H18V/E35D/M47V/V68M/A71G/D90G (Fc fusion)
chain: B1 chain with H18V, H27Q, I47V, V68M, A71G, D90G
notes: not shown: inert human IgG1 Fc
B5: variant CD80 IgV-Fc (inert) H18C/A26P/E35D/M47L/V68M/A71G (Fc fusion)
chain: B1 chain with H18C, A26P, H27Q, I47L, V68M, A71G
notes: as for B4
B6: variant CD80 IgV-Fc (inert) H18F/A26N/E35D/M47V/V68M/A71G/D90K (Fc fusion)
chain: B1 chain with H18F, A26N, H27Q, I47V, V68M, A71G, D90K
notes: as for B4
B7: variant CD80 IgV-Fc (inert) H18F/A26D/E35D/D46E/M47T/V68M/A71G/D90G (Fc fusion)
chain: B1 chain with H18F, A26D, H27Q, D46E, I47T, V68M, A71G, D90G
notes: as for B4
B8: variant CD80 IgV-Fc (inert) H18I/A26P/E35D/M47V/V68M/A71G (Fc fusion)
chain: B1 chain with H18I, A26P, H27Q, I47V, V68M, A71G
notes: as for B4
B9: variant CD80 IgV-Fc E35D/D46E/M47V/V68M/L85Q (Fc fusion, not shown: small tags and cut ends; a dimerising Fc or GST)
chain: B1 chain with H27Q, D46E, I47V, V68M, L85Q
B10: variant CD80 IgV-Fc E35D/M47V/V68M/L85M/Y87D (Fc fusion, not shown: small tags and cut ends; a dimerising Fc or GST)
chain: B1 chain with H27Q, I47V, V68M, L85M, Y87D
B11: variant CD80 IgV-Fc E35D/D46E/M47I/T62A/V68M/L85M/Y87C (Fc fusion, not shown: small tags and cut ends; a dimerising Fc or GST)
chain: B1 chain with H27Q, D46E, T62A, V68M, L85M, Y87C
B12: variant CD80 IgV-Fc Q33L/E35D/M47V/T62S/V68M/L85M (Fc fusion, not shown: small tags and cut ends; a dimerising Fc or GST)
chain: B1 chain with H27Q, Q33L, I47V, T62S, V68M, L85M
B13: variant CD80 IgV-Fc R29C/E35D/M47L/V68M/A71G/L85M (Fc fusion, not shown: small tags and cut ends; a dimerising Fc or GST)
chain: B1 chain with H27Q, R29C, I47L, V68M, A71G, L85M
B14: CD80 E35D/M47V/N48K/V68M/K89N IgV-Fc (Fc fusion, not shown: small tags and cut ends; a dimerising Fc or GST)
chain: B1 chain with H27Q, I47V, N48K, V68M, K89N
B15: CD80 N48K/K89N IgV-Fc (Fc fusion, not shown: small tags and cut ends; a dimerising Fc or GST)
chain: B1 chain with H27Q, D35E, I47M, N48K, K89N
B16: CD80 E35D/N48K/V68M IgV-Fc (Fc fusion, not shown: small tags and cut ends; a dimerising Fc or GST)
chain: B1 chain with H27Q, I47M, N48K, V68M
B17: CD80 E35D/N48K/V68M/K89N IgV-Fc (Fc fusion, not shown: small tags and cut ends; a dimerising Fc or GST)
chain: B1 chain with H27Q, I47M, N48K, V68M, K89N
B18: CD80 E35D/D46V/M47V/V68M/K89N IgV-Fc (Fc fusion, not shown: small tags and cut ends; a dimerising Fc or GST)
chain: B1 chain with H27Q, D46V, I47V, V68M, K89N
B19: CD80 M47V/V68M/K89N IgV-Fc (Fc fusion, not shown: small tags and cut ends; a dimerising Fc or GST)
chain: B1 chain with H27Q, D35E, I47V, V68M, K89N
B20: CD80 E35D/M47V/K89N IgV-Fc (Fc fusion, not shown: small tags and cut ends; a dimerising Fc or GST)
chain: B1 chain with H27Q, I47V, K89N
B21: WT CD80 ECD-Fc (Abcam) (Fc fusion, UniProt P33681 35-242, looked up)
chain: VIHVTKEVKEVATLSCGHNVSVEELAQTRIYWQKEKKMVLTMMSGDMNIWPEYKNRTIFDITNNLSIVILALRPSDEGTYECVVLKYEKDAFKREHLAEVTLSVKADFPTPSISDFEIPTSNIRRIICSTSGGFPEPHLSWLENGEELNAINTTVSQDPETELYAVSSKLDFNMTTNHSFMCLIKYGHLRVNQTFNWNTTKQEHFPDN
notes: extracellular domain; not shown: Fc of the bought product, not described

target: T1, human CTLA4 on CHO cells (human, UniProt P16410 36-223); assay: flow cytometry, CHO/CTLA4 cells; MFI relative to WT CD80
T1 construct: whole, on cells; CHO cells stably expressing CTLA4; also called huCTLA4
T1 sequence (P16410 36-223): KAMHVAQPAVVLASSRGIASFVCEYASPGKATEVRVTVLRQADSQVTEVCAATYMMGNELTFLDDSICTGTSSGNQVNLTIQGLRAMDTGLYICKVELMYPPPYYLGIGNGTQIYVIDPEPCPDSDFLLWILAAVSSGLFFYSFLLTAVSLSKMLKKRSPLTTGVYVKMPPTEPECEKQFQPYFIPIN

Binder	Fold change to WT CD80
B1	14.4 fold
B2	14.6 fold
B3	11.4 fold

target: T2, human PD-L1 on CHO cells (human, UniProt Q9NZQ7 19-290); assay: flow cytometry; PD-L1 MFI over CD28 MFI
T2 construct: whole, on cells; CHO cells stably expressing PD-L1; also called huPD-L1
T2 sequence (Q9NZQ7 19-290): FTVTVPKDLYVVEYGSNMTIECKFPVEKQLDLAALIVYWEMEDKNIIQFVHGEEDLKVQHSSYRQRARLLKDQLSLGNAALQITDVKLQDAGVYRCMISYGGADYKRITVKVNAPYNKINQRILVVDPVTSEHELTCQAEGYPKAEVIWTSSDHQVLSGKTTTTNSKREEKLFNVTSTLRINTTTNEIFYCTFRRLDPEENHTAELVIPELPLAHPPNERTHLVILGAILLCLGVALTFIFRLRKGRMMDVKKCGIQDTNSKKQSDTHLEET

Binder	Ratio of PDL1:CD28
B1	5 ratio
B2	12 ratio
B3	8 ratio

target: T2, human PD-L1 on CHO cells; assay: flow cytometry, CHO/PD-L1 cells; MFI relative to WT CD80

Binder	Fold change to WT CD80
B1	48.7 fold
B2	38.5 fold
B3	116 fold

target: T3, human CTLA-4 (human, UniProt P16410 36-223); assay: flow cytometry MFI relative to WT CD80 IgV-Fc, CHO/huCTLA-4 cells, 33.3 nM
T3 construct: whole, on cells; CHO cells stably expressing huCTLA4; also called huCTLA4
T3 sequence (P16410 36-223): as the sequence (P16410 36-223) above

Binder	Fold change to WT CD80
B4	12.1 fold
B5	16.9 fold
B6	11 fold
B7	12.4 fold
B8	15.8 fold

target: T1, human CTLA4 on CHO cells; assay: flow cytometry, CHO cells stably expressing CTLA4

Binder	MFI at 33.3 nM
B1	27500 MFI
B2	27900 MFI
B3	21900 MFI

target: T4, human PD-L1 (human, UniProt Q9NZQ7 19-290); assay: flow cytometry, CHO cells stably expressing huPD-L1, 33.3 nM Fc fusion, PE anti-human Fc
T4 construct: whole, on cells; CHO cells stably expressing huPD-L1; also called huPD-L1
T4 sequence (Q9NZQ7 19-290): as the sequence (Q9NZQ7 19-290) above

Binder	MFI at 33.3 nM
B4	43600 MFI
B5	67000 MFI
B6	22400 MFI
B7	27500 MFI
B8	64900 MFI

target: T2, human PD-L1 on CHO cells; assay: flow cytometry, CHO cells stably expressing PD-L1

Binder	MFI at 33.3 nM
B1	3420 MFI
B2	2700 MFI
B3	8170 MFI

target: T5, human CTLA4 (huCTLA4), full-length, stably expressed on CHO cells (human, UniProt P16410 36-223); assay: flow cytometry, CHO cells expressing huCTLA4
T5 construct: whole, on cells
T5 sequence (P16410 36-223): as the sequence (P16410 36-223) above

Binder	MFI at 33.3 nM
B9	15500 MFI
B10	13900 MFI
B11	17000 MFI
B12	86 MFI
B13	91 MFI

target: T6, CD28 on Jurkat/IL2 reporter cells (human, UniProt P10747 19-220); assay: flow cytometry, Jurkat cells (CD28); MFI relative to WT CD80
T6 construct: whole, on cells; Endogenous CD28 of Jurkat cells; also called Jurkats (CD28)

Binder	Fold change to WT CD80
B1	11.5 fold
B2	3.5 fold
B3	15 fold

target: T3, human CTLA-4; assay: flow cytometry, CHO cells stably expressing huCTLA-4, 33.3 nM Fc fusion, PE anti-human Fc

Binder	MFI at 33.3 nM
B4	16800 MFI
B5	23400 MFI
B6	15200 MFI
B7	17200 MFI
B8	21900 MFI

target: T4, human PD-L1; assay: flow cytometry, MFI on CHO/huPD-L1 cells divided by MFI on Jurkat cells (CD28), 33.3 nM

Binder	Ratio of PDL1:CD28
B4	20.6 ratio
B5	35.2 ratio
B6	7.1 ratio
B7	4.6 ratio
B8	25.2 ratio

target: T7, CD28 endogenously expressed on Jurkat/IL2 reporter cells (human, UniProt P10747 19-220); assay: flow cytometry, Jurkat cells (CD28), Fc fusion at 33.3 nM
T7 construct: whole, on cells; Target on Jurkat cells; also called Jurkats (CD28)

Binder	MFI at 33.3 nM
B14	1350 MFI
B15	170 MFI
B16	642 MFI
B17	1530 MFI
B18	2120 MFI
B19	1320 MFI
B20	507 MFI
B21	709 MFI

target: T4, human PD-L1; assay: flow cytometry MFI relative to WT CD80 IgV-Fc, CHO/huPD-L1 cells, 33.3 nM

Binder	Fold change to WT CD80
B4	264 fold
B5	406 fold
B6	136 fold
B7	167 fold
B8	393 fold

target: T8, human CTLA4 expressed on CHO cells (human, UniProt P16410 36-223); assay: flow cytometry, CHO cells stably expressing CTLA4, Fc fusion at 33.3 nM
T8 construct: whole, on cells; Target on CHO cells stably expressing CTLA4; also called huCTLA4
T8 sequence (P16410 36-223): as above

Binder	MFI at 33.3 nM
B14	20900 MFI
B15	4370 MFI
B16	33600 MFI
B19	24800 MFI
B20	39300 MFI

target: T9, human CD28 (human, UniProt P10747 19-220); assay: flow cytometry, Jurkat/IL2 reporter cells (endogenous CD28), 33.3 nM Fc fusion, PE anti-human Fc
T9 construct: whole, on cells; Jurkat/IL2 reporter cells, which endogenously express CD28

Binder	MFI at 33.3 nM
B4	2120 MFI
B5	1910 MFI
B6	3170 MFI
B7	6030 MFI
B8	2570 MFI

target: T9, human CD28; assay: flow cytometry MFI relative to WT CD80 IgV-Fc, Jurkat cells (CD28), 33.3 nM

Binder	Fold change to WT CD80
B4	20.7 fold
B5	18.7 fold
B6	31.1 fold
B7	59.1 fold
B8	25.2 fold

target: T10, human PD-L1 expressed on CHO cells (human, UniProt Q9NZQ7 19-290); assay: flow cytometry, CHO cells stably expressing PD-L1, Fc fusion at 33.3 nM
T10 construct: whole, on cells; Target on CHO cells stably expressing PD-L1; also called huPD-L1
T10 sequence (Q9NZQ7 19-290): as the sequence (Q9NZQ7 19-290) above

Binder	MFI at 33.3 nM
B14	14800 MFI
B17	17400 MFI
B18	21600 MFI
B19	11800 MFI
B20	4340 MFI

target: T11, human PD-L1 (huPD-L1), full-length, stably expressed on CHO cells (human, UniProt Q9NZQ7 19-290); assay: flow cytometry, CHO cells expressing huPD-L1
T11 construct: whole, on cells
T11 sequence (Q9NZQ7 19-290): as above

Binder	MFI at 33.3 nM
B9	1720 MFI
B10	1720 MFI

target: T6, CD28 on Jurkat/IL2 reporter cells; assay: flow cytometry, Jurkat cells (CD28)

Binder	MFI at 33.3 nM
B1	756 MFI
B2	230 MFI
B3	990 MFI
